Reference: the supplement of paper PMC10567573

B1: MFF (parent)
chain: MAEISRIQYEMEYTEGISQRMRVP

Variants of: B1
Assay: protein stability index of a GFP-peptide fusion (GPS, HEK-293T) (PSI 1-6); higher = more stable
Settings: c terminus: a fixed tail appended
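Note: lentivirally expressed fusions sorted by FACS into six bins by GFP to DsRed ratio, PSI derived from sequencing read proportions per bin multiplied by bin number.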

Protein stability index of substitutions, site by site:
A2: L 1.86; H 2.45; S 2.5
T14: N 3.15; Y 2.04; C 2.24; L 2.07; E 3.22; H 2.5
I7: D 3.8; L 2.29; Y 2.58; V 2.64; F 2.69; K 3.34
Q19: N 3.06; E 2.54; G 2.81; T 2.66; W 2.16; R 2.59; F 1.56
E3: D 2.58; F 1.76; S 1.85; W 1.57; Q 2.07; K 2.3; M 1.91; V 1.98; C 2.45
I17: S 3.52; A 3.03; Y 2.62; L 2.52; Q 3.76; M 2.35; P 3.57; V 2.96; C 2.92
S5: C 1.88; A 1.72; T 2.02; G 2.27; E 2.95; R 2.75; L 2.17; F 1.71; H 2.47
E15: W 1.77; T 2.56; F 2.17; R 2.45; V 1.62; A 2.1; Q 2.42; M 1.75
E10: C 1.99; Y 2.09; F 1.96; P 3.04; V 1.89; A 2.15
R22: P 2.56; E 2.86; V 2.9; K 2.8; M 2.38; S 2.44; H 2.46; I 1.84; F 1.69
V23: M 2.63; T 2.56; Y 2.41; E 2.73; K 3.43; A 2.31; C 2.87
R6: L 1.71; Q 3.34; C 2.97; M 2.41; G 3.36; W 1.95; D 3.28
Y9: C 2.78; R 2.88; E 3.6; W 2.28; P 3.57
S18: K 2.27; C 2.41; D 2.97; M 1.94; P 2.65; T 2.6; L 1.82; N 2.98; Y 1.92
E12: C 1.98; G 2.26; Q 1.87; D 2.53; W 2.12; N 2.4; T 1.86; A 1.82; P 2.81; H 2.26
Q8: C 1.9; E 3.02; Y 1.75; F 1.58; D 2.85; T 2.38; K 2.13; P 3.03; A 2.31
I4: N 3.71; T 3.86; G 3.4; F 2.56; H 3.34
P24: K 2.98; Q 2.75; C 1.93
Y13: G 3.66; K 2.96; V 3.12; D 3.95; L 2.62; S 3.79; P 3.69; H 3.26
M21: V 2.79; C 2.32; H 3.6; G 3.62; W 1.91; E 3.58; N 3.32
R20: F 2.08; P 2.73; W 1.67; G 2.14; Y 1.58; A 2.01; Q 2.3; T 2.66
M1: E 4.04; H 2.92; F 1.97; D 3.56; T 3.28; L 2.55; N 3.16
M11: I 2.16; C 3.04; L 2.37; R 3.19; N 3.78; K 3.27
G16: P 3.13; M 1.88; H 2.02; L 1.9
